Measurements reported in paper PMC12359043, “Chemical crosslinking extends and complements UV crosslinking in analysis of RNA/DNA nucleic acid–protein interaction sites by mass spectrometry”.

Target: NELF complex WT (NELF-A/B/C-D/E) (human, UniProt Q9H3P2;Q8WX92;Q8IXH7;P18615 1-528;49-628;1-590;1-380)
Assay: fluorescence anisotropy; NELF-TAR complex: 20 mM HEPES/NaOH pH 7.4, 150 mM NaCl, 10% glycerol, 1 mM DTT, mixed 30 min at 4 C; anisotropy conditions only by reference [29]; Hsh49-Cus1-U2 reconstituted 30 min on ice; Dnmt2 dialysed in 50 mM HEPES pH 7.5, 150 mM NaCl, 2 mM DTT
Settings: protein: recombinant; copies: 1;1;1;1; hairpin

Chain of NELF complex WT (NELF-A/B/C-D/E) (Q9H3P2 whole entry, chain 1 of 4): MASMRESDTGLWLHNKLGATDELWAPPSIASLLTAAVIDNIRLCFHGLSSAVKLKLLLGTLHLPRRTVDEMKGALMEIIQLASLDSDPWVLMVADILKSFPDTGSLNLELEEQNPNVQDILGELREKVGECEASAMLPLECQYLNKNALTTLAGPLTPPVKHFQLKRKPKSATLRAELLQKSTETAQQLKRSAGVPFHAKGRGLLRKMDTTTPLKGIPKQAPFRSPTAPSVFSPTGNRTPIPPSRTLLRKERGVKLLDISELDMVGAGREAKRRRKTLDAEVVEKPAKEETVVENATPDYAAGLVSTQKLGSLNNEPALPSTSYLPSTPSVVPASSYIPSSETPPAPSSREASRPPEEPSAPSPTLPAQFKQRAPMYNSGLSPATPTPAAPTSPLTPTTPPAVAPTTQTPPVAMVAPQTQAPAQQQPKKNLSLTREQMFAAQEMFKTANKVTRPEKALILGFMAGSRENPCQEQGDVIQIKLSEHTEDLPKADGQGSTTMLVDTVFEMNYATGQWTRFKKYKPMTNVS
Chain of NELF complex WT (NELF-A/B/C-D/E) (Q8WX92 whole entry, chain 2 of 4): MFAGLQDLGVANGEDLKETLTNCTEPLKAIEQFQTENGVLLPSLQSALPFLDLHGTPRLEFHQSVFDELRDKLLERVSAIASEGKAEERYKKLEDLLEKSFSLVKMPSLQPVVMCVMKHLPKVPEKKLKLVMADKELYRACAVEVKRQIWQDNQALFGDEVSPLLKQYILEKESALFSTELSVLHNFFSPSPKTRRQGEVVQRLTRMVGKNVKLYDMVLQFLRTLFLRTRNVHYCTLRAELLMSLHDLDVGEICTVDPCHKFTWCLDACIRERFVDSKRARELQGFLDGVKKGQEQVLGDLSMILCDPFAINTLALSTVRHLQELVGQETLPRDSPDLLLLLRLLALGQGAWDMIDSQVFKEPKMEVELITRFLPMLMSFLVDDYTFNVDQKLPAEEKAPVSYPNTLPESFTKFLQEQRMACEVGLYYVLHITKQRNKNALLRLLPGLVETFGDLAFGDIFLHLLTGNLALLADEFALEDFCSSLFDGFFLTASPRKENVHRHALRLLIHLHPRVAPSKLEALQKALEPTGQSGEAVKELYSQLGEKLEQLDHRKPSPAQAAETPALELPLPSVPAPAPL
Chain of NELF complex WT (NELF-A/B/C-D/E) (Q8IXH7 whole entry, chain 3 of 4): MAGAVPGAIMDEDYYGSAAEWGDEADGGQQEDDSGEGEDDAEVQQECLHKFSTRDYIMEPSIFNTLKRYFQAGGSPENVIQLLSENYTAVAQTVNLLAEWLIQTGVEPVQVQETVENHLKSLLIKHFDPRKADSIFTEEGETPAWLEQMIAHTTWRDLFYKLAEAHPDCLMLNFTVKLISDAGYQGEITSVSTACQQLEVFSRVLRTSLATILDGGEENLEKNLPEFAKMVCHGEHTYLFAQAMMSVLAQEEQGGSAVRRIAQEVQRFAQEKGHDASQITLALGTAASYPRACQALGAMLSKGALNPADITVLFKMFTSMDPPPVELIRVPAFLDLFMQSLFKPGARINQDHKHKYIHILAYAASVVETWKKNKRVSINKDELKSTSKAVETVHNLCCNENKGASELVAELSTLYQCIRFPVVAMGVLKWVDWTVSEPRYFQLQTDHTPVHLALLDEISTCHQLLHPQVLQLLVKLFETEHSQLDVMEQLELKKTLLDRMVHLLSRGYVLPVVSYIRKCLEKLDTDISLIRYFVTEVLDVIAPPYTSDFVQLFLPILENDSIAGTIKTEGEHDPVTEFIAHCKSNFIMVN
Chain of NELF complex WT (NELF-A/B/C-D/E) (P18615 whole entry, chain 4 of 4): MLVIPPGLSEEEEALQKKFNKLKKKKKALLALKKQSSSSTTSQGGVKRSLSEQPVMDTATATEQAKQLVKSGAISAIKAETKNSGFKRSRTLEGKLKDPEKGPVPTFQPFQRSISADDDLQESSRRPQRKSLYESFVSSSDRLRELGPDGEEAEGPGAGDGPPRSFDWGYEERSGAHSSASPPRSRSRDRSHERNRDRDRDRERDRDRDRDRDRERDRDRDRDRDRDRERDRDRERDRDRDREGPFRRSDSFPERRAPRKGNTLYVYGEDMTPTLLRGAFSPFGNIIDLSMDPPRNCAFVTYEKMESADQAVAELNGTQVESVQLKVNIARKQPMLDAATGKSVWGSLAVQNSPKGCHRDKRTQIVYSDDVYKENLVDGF

## CCAGAUCUGAGCCUGGGAGCUCUCUGG (structured_RNA) [HIV-1 TAR stem-loop RNA]
  binding result: binds
